# B1: ETS translocation variant 1 (Homo sapiens), P50549-1 (parent)
# chain: MDGFYDQQVPYMVTNSQRGRNCNEKPTNVRKRKFINRDLAHDSEELFQDLSQLQETWLAEAQVPDNDEQFVPDYQAESLAFHGLPLKIKKEPHSPCSEISSACSQEQPFKFSYGEKCLYNVSAYDQKPQVGMRPSNPPTPSSTPVSPLHHASPNSTHTPKPDRAFPAHLPPSQSIPDSSYPMDHRFRRQLSEPCNSFPPLPTMPREGRPMYQRQMSEPNIPFPPQGFKQEYHDPVYEHNTMVGSAASQSFPPPLMIKQEPRDFAYDSEVPSCHSIYMRQEGFLAHPSRTEGCMFEKGPRQFYDDTCVVPEKFDGDIKQEPGMYREGPTYQRRGSLQLWQFLVALLDDPSNSHFIAWTGRGMEFKLIEPEEVARRWGIQKNRPAMNYDKLSRSLRYYYEKGIMQKVAGERYVYKFVCDPEALFSMAFPDNQRPLLKTDMERHINEEDTVPLSHFDESMAYMPEGGCCNPHPYNEGYVY
# Variants of: B1
# Conditions: with COP1, Q8NHY2-1
# Sequence of COP1, Q8NHY2-1 (Q8NHY2 whole entry): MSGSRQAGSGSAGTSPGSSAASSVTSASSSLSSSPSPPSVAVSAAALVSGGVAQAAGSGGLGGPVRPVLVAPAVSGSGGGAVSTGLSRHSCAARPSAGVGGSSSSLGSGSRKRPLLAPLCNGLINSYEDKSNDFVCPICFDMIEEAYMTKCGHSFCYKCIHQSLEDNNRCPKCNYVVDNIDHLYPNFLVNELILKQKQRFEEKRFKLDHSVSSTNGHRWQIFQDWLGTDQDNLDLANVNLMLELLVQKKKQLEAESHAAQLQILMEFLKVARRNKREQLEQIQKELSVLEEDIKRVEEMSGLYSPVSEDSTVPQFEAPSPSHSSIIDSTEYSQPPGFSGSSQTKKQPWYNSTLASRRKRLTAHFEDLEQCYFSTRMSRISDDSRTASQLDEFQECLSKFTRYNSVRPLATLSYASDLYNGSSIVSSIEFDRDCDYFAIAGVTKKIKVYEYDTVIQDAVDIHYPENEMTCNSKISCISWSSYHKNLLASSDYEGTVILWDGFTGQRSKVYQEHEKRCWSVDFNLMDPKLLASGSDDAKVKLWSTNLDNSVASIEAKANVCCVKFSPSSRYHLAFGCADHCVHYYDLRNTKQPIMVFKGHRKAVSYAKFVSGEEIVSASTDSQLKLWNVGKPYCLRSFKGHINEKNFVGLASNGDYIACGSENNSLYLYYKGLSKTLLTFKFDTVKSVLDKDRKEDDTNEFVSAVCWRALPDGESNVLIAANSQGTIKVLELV
row,effect of a mutation on the interaction,Variant
1,decreasing interaction,V63A;P64A;V71A;P72A
2,decreasing interaction,V71A;P72A
